Laboratory results: article PMC8097366, “The Dual Function of KDM5C in Both Gene Transcriptional Activation and Repression Promotes Breast Cancer Cell Growth and Tumorigenesis” (Advanced Science, 2021)

Target: T1, HA-tagged KDM5C, full length (UniProt P41229 1-1560)
T1 construct: KDM5C (JARID1C, SMCX), histone demethylase; the truncations run to residue 1560; KDM5C was sub-cloned into pCDH-3×Flag-3×HA-EF1-puro and into pLV-EF1-puro(cs2.0)-N-3×HA; also called HA-KDM5C; KDM5C FL; source: HEK293T, transfected, in lysate, nuclear extract or cytosolic extract; HEK293T, purified on anti-HA agarose
Experiment: co-IP; cytosolic extracts from transfected HEK293T cells; IP with anti-HA antibody; immunoblotting
Conditions: partners not purified

T1 sequence (P41229 whole entry, the tested form may be a part): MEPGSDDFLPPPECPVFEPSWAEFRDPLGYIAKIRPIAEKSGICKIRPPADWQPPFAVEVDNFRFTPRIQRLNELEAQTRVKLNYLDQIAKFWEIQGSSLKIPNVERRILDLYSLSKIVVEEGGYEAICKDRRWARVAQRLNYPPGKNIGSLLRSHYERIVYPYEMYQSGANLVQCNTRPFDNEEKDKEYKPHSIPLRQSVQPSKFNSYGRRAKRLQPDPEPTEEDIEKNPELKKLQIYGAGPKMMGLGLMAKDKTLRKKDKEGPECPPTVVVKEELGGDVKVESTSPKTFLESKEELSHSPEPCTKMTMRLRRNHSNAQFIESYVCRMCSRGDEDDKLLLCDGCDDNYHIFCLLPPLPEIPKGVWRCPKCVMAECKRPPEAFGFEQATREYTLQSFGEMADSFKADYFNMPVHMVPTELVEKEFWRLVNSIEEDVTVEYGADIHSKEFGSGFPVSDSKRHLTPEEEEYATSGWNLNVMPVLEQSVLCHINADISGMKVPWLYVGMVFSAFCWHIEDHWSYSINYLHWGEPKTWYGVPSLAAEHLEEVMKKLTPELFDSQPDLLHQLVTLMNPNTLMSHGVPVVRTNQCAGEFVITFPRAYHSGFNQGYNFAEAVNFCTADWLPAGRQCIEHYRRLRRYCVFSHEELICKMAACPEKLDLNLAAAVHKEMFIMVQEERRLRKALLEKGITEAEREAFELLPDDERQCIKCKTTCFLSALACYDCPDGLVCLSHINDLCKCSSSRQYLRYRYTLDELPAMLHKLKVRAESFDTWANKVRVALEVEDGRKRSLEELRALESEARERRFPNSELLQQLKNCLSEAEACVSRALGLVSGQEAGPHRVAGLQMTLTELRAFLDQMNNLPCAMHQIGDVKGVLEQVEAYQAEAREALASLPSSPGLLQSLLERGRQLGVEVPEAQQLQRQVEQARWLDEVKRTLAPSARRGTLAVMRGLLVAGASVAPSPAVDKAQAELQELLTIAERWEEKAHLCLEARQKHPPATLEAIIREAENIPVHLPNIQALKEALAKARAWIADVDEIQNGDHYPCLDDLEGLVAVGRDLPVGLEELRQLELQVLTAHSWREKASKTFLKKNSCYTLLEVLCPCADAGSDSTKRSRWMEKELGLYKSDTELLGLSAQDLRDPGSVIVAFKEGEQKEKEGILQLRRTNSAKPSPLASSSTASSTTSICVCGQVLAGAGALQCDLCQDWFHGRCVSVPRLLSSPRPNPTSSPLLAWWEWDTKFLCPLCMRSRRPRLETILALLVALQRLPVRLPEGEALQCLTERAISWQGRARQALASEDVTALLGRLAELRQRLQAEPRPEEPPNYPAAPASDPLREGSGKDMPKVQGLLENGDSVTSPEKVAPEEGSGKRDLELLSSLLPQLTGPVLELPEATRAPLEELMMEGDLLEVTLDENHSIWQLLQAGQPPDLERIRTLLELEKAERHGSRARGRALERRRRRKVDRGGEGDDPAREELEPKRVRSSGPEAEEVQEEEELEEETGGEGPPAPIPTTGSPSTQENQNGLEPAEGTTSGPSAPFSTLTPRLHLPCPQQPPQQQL

B1: Flag-tagged TBK1 (pBOBI-3×Flag-hTBK1) (enzyme, human, UniProt Q9UHD2 1-729, looked up)
chain: MQSTSNHLWLLSDILGQGATANVFRGRHKKTGDLFAIKVFNNISFLRPVDVQMREFEVLKKLNHKNIVKLFAIEEETTTRHKVLIMEFCPCGSLYTVLEEPSNAYGLPESEFLIVLRDVVGGMNHLRENGIVHRDIKPGNIMRVIGEDGQSVYKLTDFGAARELEDDEQFVSLYGTEEYLHPDMYERAVLRKDHQKKYGATVDLWSIGVTFYHAATGSLPFRPFEGPRRNKEVMYKIITGKPSGAISGVQKAENGPIDWSGDMPVSCSLSRGLQVLLTPVLANILEADQEKCWGFDQFFAETSDILHRMVIHVFSLQQMTAHKIYIHSYNTATIFHELVYKQTKIISSNQELIYEGRRLVLEPGRLAQHFPKTTEENPIFVVSREPLNTIGLIYEKISLPKVHPRYDLDGDASMAKAITGVVCYACRIASTLLLYQELMRKGIRWLIELIKDDYNETVHKKTEVVITLDFCIRNIEKTVKVYEKLMKINLEAAELGEISDIHTKLLRLSSSQGTIETSLQDIDSRLSPGGSLADAWAHQEGTHPKDRNVEKLQVLLNCMTEIYYQFKKDKAERRLAYNEEQIHKFDKQKLYYHATKAMTHFTDECVKKYEAFLNKSEEWIRKMLHLRKQLLSLTNQCFDIEEEVSKYQEYTNELQETLPQKMFTASSGIKHTMTPIYPSSNTLVEMTLGMKKLKEEMEGVVKELAENNHILERFGSLTMDGGLRNVDCL
notes: TBK1, kinase; hTBK1 in the construct's name; The end of the tag and the species are read from the printed name of the construct; also called Flag-TBK1; source: HEK293T, transfected, in cytosolic extract; HEK293T, purified (eluted with 3×Flag peptide); not shown: 3×Flag, N-terminal, kept
- binding result: binds
